Publication doi:10.1101/2025.11.15.688632

Target: pseudo wild-type full-length CREB (unlabelled) (UniProt P16220)
Test: SEC-MALS

Substance “pseudo wild-type full-length CREB (unlabelled) (from UniProt P16220-2 1-327) (natural protein)” has a stoichiometry N of 2.
